From the supplement of paper PMC10567573
± gives the standard deviation.

Test: protein stability index of a GFP-peptide fusion (GPS, HEK-293T) (PSI 1-6); higher = more stable
[1] = treatment: DMSO, c terminus: a fixed tail appended
[2] = treatment: MLN4924 1 uM, 8 h, c terminus: a fixed tail appended
[3] = treatment: DMSO, c terminus: native
[4] = treatment: MLN4924 1 uM, 8 h, c terminus: native
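Note: 24-mer peptide tiles fused after GFP, lentivirally expressed, FACS-sorted into six equal bins by GFP/DsRed ratio, decoded by Illumina sequencing, PSI is the read-weighted mean bin number.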

KGKAGRVDLVDESGYVSGYKHAGT [TPPP]
protein stability index [1]: 4.32 ± 0.12
protein stability index [2]: 4.57 ± 0.18

ESYPEDTVFYIPEDHKPGTFPKAL [DLC1]
protein stability index [1]: 4.13 ± 0.31
protein stability index [2]: 4.22 ± 0.21

PMMKLKRHFVAQKYKKQIDHMYH [ACSBG2]
protein stability index [3]: 2.7 ± 0.32
protein stability index [4]: 2.75 ± 0.32

DAEVSCTDNGTFNLSRGQTPLTEG [RETREG3]
protein stability index [1]: 5.2 ± 0.25
protein stability index [2]: 5.32 ± 0.1

CQRERAFSVKFEVQAPRWGNPRAL [OAS1]
protein stability index [1]: 2.46 ± 0.12
protein stability index [2]: 2.8 ± 0.27

ELKTFRLKTRSWAGERSRRELCSR [CDC25B]
protein stability index [1]: 3.07 ± 0.099
protein stability index [2]: 3.44 ± 0.56

RDTRDYAPPPRDYTYRDYGHSSSR [RBMX]
protein stability index [1]: 4.01 ± 0.14
protein stability index [2]: 3.65 ± 0.77

SFGFPRTVKHIDAALSEENTGKTY [MMP1]
protein stability index [1]: 4.13 ± 0.25
protein stability index [2]: 3.94 ± 0.16

IIYKQTKGGVQNFNKDLVQDCGFE [CEP70]
protein stability index [1]: 1.96 ± 0.42
protein stability index [2]: 2.66 ± 0.22

IFAGVHDEKAKPRDRQQAPGLGQE [TLE6]
protein stability index [1]: 4.73 ± 0.2
protein stability index [2]: 4.81 ± 0.065

AVPKFMKRIKVPDYKDRSVFGVPL [DLC1]
protein stability index [1]: 2.33 ± 0.15
protein stability index [2]: 2.4 ± 0.25

PQYAERLLSGAFKKRRLPPVHIHP [FOXJ1]
protein stability index [1]: 2.76 ± 0.22
protein stability index [2]: 2.9 ± 0.1

LVGAQAPATEEQEAASSSSTLVEV [MAGEA3]
protein stability index [1]: 5.43 ± 0.21
protein stability index [2]: 5.3 ± 0.097

VAFRGLKGKKLYPVVSAVWGHCEV [SPSB4]
protein stability index [1]: 1.83 ± 0.46
protein stability index [2]: 2.71 ± 0.2

TSCAGNLPSRPPPLLSPLLASRNP [RSPH3]
protein stability index [1]: 3.45 ± 0.22
protein stability index [2]: 3.61 ± 0.32

DQEAVCLICAISHTHRAHTVVPLD [TRIM39]
protein stability index [1]: 2.22 ± 0.21
protein stability index [2]: 2.19 ± 0.35

SDLFRLQEYNIPGVIQSVIGWKTV [CDS2]
protein stability index [1]: 2.28 ± 0.26
protein stability index [2]: 2.1 ± 0.28

SLGRHKRTHTGEKPYTCSVCGKSF [ZNF8]
protein stability index [1]: 3.2 ± 0.58
protein stability index [2]: 3.69 ± 0.6

RGFAFVTFESPADAKDAARDMNGK [RBMX]
protein stability index [1]: 4.12 ± 0.16
protein stability index [2]: 4.19 ± 0.26

VTSQQEPQIPVDRGSETTYESSAD [TAF7L]
protein stability index [1]: 5.21 ± 0.25
protein stability index [2]: 5.52 ± 0.23

KAVQYEEKNPCRTLCCFCCPCLK [STX11]
protein stability index [3]: 3.59 ± 0.36
protein stability index [4]: 3.7 ± 0.084

EDNLEDDDVEMKNGITQGDKLRAL [CDC14A]
protein stability index [1]: 5.44 ± 0.26
protein stability index [2]: 5.38 ± 0.12

FEWTDSPNTAVSVHVSESSDDDEE [ACBD3]
protein stability index [1]: 5.53 ± 0.22
protein stability index [2]: 5.56 ± 0.21

EKMKKRKMSNSFHGIRPPQLEQPE [RHOBTB3]
protein stability index [1]: 4.65 ± 0.12
protein stability index [2]: 4.77 ± 0.14

LEPLKAIIQYRLPMKKNNNLYSWD [ACSBG2]
protein stability index [1]: 2.57 ± 0.47
protein stability index [2]: 2.17 ± 0.2

QARQFRTFHHPTYGSCYTVDGVWT [SCNN1D]
protein stability index [1]: 2.21 ± 0.19
protein stability index [2]: 2.3 ± 0.2

IMNEKCVVENAEKILGYLNTNVLS [SLC6A17]
protein stability index [1]: 2.92 ± 0.35
protein stability index [2]: 2.47 ± 0.5

MLLFLSVPQPRPPGARTRAGAARV [FBXO33]
protein stability index [1]: 2.31 ± 0.26
protein stability index [2]: 2.13 ± 0.21

RRQLEACQRERAFSVKFEVQAPRW [OAS1]
protein stability index [1]: 2.75 ± 0.23
protein stability index [2]: 2.93 ± 0.18

LSQADFLVCTFSSQVCRVAYEIMQ [FUT8]
protein stability index [1]: 2.96 ± 0.39
protein stability index [2]: 2.93 ± 0.58

KVPFSQEIKDLILPKISDPNFVKD [PI4K2A]
protein stability index [1]: 3.56 ± 0.24
protein stability index [2]: 3.56 ± 0.28

AVFMWPGKDSRWLPSLVLARLVFV [SLC29A1]
protein stability index [1]: 3.25 ± 0.68
protein stability index [2]: 2.67 ± 0.34

LENTYRDFWLMVWEQKVLVIVMTT [PTPN9]
protein stability index [1]: 2.36 ± 0.7
protein stability index [2]: 2.59 ± 0.6

SGDPPLSSNVSLSLFVLDQNDNAP [PCDHGA10]
protein stability index [1]: 3.63 ± 0.09
protein stability index [2]: 3.59 ± 0.27

CVLRCSVLEIEQSMNRVKNISDAD [FEM1B]
protein stability index [1]: 2.58 ± 0.37
protein stability index [2]: 2.83 ± 0.24

PGSQTAVKNSNRYDVEMTDELVGL [FBXO34]
protein stability index [1]: 4.98 ± 0.12
protein stability index [2]: 4.93 ± 0.27
